According to patent US5910570A, “Cloned DNA encoding a UDP-GalNAc: polypeptide N-acetylgalactosaminy-ltransferase” (Pharmacia & Upjohn Company, priority 1997, dated 1999):
Values joined by “and” are separate entries in the source; they are usually repeats but may differ in a detail not shown here. Equal entries are not always repeated.

Columns and labels:
[1] = target: T1, cloned soluble GalNAc-transferase (GalNAcTs) (Bos taurus, UniProt Q07537); assay: Kinetic parameters with the cloned soluble GalNAc-transferase (Bond Elut assay); format: biochemical, bovine; details: read-out: Km for UDP-GalNAc
T1 construct: The plasmid pAC373-GalNAcT (Homa et al., 1993) which contains the full length GalNAc-transferase gene; honeybee melittin signal peptide (21 aa) (N, cleaved yes); made in house; host or cells: Sf9 cells / baculovirus, purified from serum-free culture medium on apomucin-Sepharose
T1 sequence (Q07537 48-559 limits assumed): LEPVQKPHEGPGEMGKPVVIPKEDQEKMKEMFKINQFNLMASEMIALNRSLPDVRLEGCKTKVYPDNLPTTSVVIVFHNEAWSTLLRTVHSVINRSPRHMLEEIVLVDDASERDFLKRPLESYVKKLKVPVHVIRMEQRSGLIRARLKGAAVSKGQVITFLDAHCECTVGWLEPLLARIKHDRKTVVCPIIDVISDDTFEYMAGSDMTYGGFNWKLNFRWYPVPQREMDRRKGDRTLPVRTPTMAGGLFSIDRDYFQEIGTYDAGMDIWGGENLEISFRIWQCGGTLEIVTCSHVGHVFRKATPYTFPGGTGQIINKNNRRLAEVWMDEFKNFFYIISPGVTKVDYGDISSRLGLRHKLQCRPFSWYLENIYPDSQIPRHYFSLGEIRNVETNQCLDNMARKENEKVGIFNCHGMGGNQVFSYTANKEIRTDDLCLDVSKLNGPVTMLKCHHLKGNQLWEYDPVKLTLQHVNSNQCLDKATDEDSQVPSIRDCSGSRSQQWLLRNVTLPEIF

[2] = test system: GalNAc-transferase purified from porcine submaxillary glands; details: Wang et al., 1992; read-out: Km for UDP-GalNAc; cited from earlier work
[3] = target: T2, bovine colostrum GalNAc-transferase (Bos taurus, UniProt Q07537); design: host or cells: bovine colostrum; details: Elhammer and Kornfeld, 1986; read-out: Km for UDP-GalNAc; cited from earlier work
T2 sequence (Q07537 41-559 limits assumed): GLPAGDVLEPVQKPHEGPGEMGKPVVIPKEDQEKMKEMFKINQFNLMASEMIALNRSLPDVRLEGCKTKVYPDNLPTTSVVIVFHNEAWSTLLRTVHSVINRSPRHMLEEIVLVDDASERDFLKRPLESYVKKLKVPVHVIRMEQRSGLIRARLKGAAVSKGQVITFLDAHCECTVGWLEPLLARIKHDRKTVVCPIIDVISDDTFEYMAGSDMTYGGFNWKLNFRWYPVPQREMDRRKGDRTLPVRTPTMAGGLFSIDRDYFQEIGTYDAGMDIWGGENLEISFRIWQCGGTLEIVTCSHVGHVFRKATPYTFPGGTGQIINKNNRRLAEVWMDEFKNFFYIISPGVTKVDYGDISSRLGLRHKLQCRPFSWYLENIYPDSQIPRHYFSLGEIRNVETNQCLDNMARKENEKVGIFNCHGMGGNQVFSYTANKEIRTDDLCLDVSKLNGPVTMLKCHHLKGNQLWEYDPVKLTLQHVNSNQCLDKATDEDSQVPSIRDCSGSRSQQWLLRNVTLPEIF

[4] = target: T2, bovine colostrum GalNAc-transferase; assay: Transfer of N-acetylgalactosamine to protein acceptors; format: biochemical; design: from tissue; host or cells: bovine colostrum; details: for acceptor activity (in words): native or reduced and carboxymethylated state
Protocol: The above conclusions and the predictions of the specificity algorithm are validated experimentally by studying the ability of bovine colostrum GalNAc-transferase to transfer N-acetylgalactosamine to a variety of acceptors, both native proteins and synthetic acceptor peptides. The transfer of N-acetylgalactosamine to protein acceptors is assayed as described by Elhammer and Kornfeld, 1986, with minor modifications. The concentration of UDP-GalNAc is saturating in all assays; a Km of 8 μM is reported for bovine colostrum GalNAc-transferase (Elhammer and Kornfeld, 1986).
The transfer of N-acetylgalactosamine to protein acceptors was assayed
under standard conditions (see Material and Methods). The acceptor
concentration was 65 μM, the enzyme concentration approximately 65
mU/ml and assay time was 60 minutes. The transfer to both native and
reduced-carboxymethylated acceptors was assayed.

Compound: CC(=O)N[C@H]1[C@@H](OP(=O)(O)OP(=O)(O)OC[C@H]2O[C@@H](n3ccc(=O)[nH]c3=O)[C@H](O)[C@@H]2O)O[C@H](CO)[C@H](O)[C@@H]1O [UDP-GalNAc, UDP-N-acetylgalactosamine]
- Km [1]: ~1.7 µM and 1.7 µM
- Km [2]: 6 µM
- Km [3]: 8 µM

Compound: Bovine cytochrome C: protein with one Ser and eight Thr residues but no predicted potential sites
- Product formed, Native ([4]; native acceptor 65 μM, enzyme approx. 65 mU/ml, 60 minutes): < 0.1 nmol/min/mg
- acceptor activity (in words) ([4]; listed as bovine cytochrome C): not an acceptor
- acceptor activity (in words) ([4]; listed as cytochrome C): completely inactive as an acceptor
- Product formed, Reduced and carboxymethylated ([4]; reduced and carboxymethylated acceptor 65 μM, enzyme approx. 65 mU/ml, 60 minutes): < 0.1 nmol/min/mg
